Source: the DeepSol protein solubility set

Experiment: soluble on expression in E. coli; label from the status in PepcDB or PDB records

Row | Sequence | soluble on expression in E. coli
1 | MGSDKIHHHHHHMGNKPSGRHYFAEGITNRGYISLLPNMMSEWERTYVLMGGPGTGKSTTIKMIGLDLLDRGYEVDFLRSARDPDSMAGVLIRRFNWAILDHYEIAPLHWRAPGVIEHFVDFSKYCNQGKLEQQRLRVLELGEKIKRGQQRIGEILAEEFGGRIRERFYAKADEGRPWLPKLYASDLFKEAKGPWSKAQDALKKIQKSAVQSFFLHGINPEGWLNLAPYFLTDYDQIRFDGEEAHEAMEWVLQEAEQLGQVIDIVLHPLYPDEILGIVFPERNLAIWQGDPEHLEDQGLGCPFSNDLKKALLDTQRLRDKLKAIYTKTVDFDQVDSMKTDLLSSILRDMDKKVHTID | not soluble
2 | MGITALAFDFGTKSIGCAIGQSITGTAQALPAFKAQDGIPNWEAIEKCLKEWKPDVVIVGLPLNMDGTEQDLTLRARKFANRLQGRFGVNVHLQDERLTTTQARSEIFERGGFKALKKGKIDGVSACLILESWFEYAEY | not soluble
3 | SARRYDELPHYPGIVDGPAALASFPETVPAVPGPYGPHRPPQPLPPGLDSDGLKREKDEIYGHPLFPLLALVFEKCELATCSPRDGAGAGLGTPPGGDVCSSDSFNEDIAAFAKQVRSERPLFSSNPELDNLMIQAIQVLRFHLLELEKGKMPIDLVIEDRDGGCREDFEDYPASCPSLPDQNNMWIRDHEDSGSVHLGTPGPSSGGLASQSGDNSSDQGDGLDTSVASPSSGGEDEDLDQERRRNKKRGIFPKVATNIMRAWLFQHLSHPYPSEEQKKQLAQDTGLTILQVNNWFINARRRIVQPMIDQSNRTGQGAAFSPEGQPIGGYTETQPHVAVRPPGSVGMSLNLEGEWHYL | soluble
4 | MMKKMMVLYNETSGSSESKEIAERFKKAAEARGEAVILQPSNPDIDPEEMRKNAKENQVGVLVVIGGDGTIHHAVQNFKDTIRDYQIGIIPGGTVNNFARVLSIPLKEEDAFETILAGQTTPVDFGMVNQDVMISTLTIGLLADTAANVTQQEKQKYGPLAFTKQFFRLLMKKKKYKLKIDGDERRWHGKAQLLTMTMTNSAGGFTNFDANATPDDGEVHIIILPKLVFYKFVYYLPKIIRGQLNEIPGVVYFSGSQFKISGEKDKKVQTRTDGDPTDDLPIKVTVEAGGLNVFVPETSTSTKE | not soluble
5 | FDKLGNSAAIQEMNREVEAAAKRTSPVFLTGEAGSPFETVARYFHKNGTPWVSPARVEYLIDMPMELLQKAEGGVLYVGDIAQYSRNIQTGITFIIGKAERCRVRVIASCSYAAGSDGISCEEKLAGLFSESVVRIPPLS | soluble
6 | MGSDKIHHHHHHMDVNEIRENAKKLMELMMLDKPFVAVKLAKSKEEIPEGYETLDEEKRHCEMIQMARLERKKLYATVDKHLCKGGAYAMGVFRNPPEPLATGKLYVKLGNFKDEEAAKKTVDAIPKVEEEIYATVYAPLDETDFIPDSIVFIGEPLYALRLVQAILYHKGGRFQADFSGIQSLCADAVAAVYTRKAPNMTLGCNGSRKYAGIKPEEVVVAFPPEKLKDIVEAIEHFRQVWTCGH | not soluble
7 | MGSDKIHHHHHHMKKSIVVFEVEGGSDKHFDGHRKDTMPIVNSINDAGWQAEVVYYRPEWTEGLFEYVSENFDGYISRVNPGNIPGGERGYFDLLTRLSEAGLVGMSTPEEMMAYGAKDALVKLSQTDLVPSDTEAYYDVETFHKVFPTSLSFGERVLKQNRGSTGSGIWRVQLVDKELAASIEPGTALPLDTEIKCTEAVDNHTEVRKLGEFMDFCDQYIIGDNGMLVDMRFMPRIVEGEIRILLVGPHPVFVVHKKPAEGGDNFSATLFSGAKYTYDKPEQWQELIDLFADARPVIAEKLGGDNIPLIWTADFMLGDVVDGKDTYVLGEINCSCVGFTSELDMGIQQLVASEAIKRIEEFAQLTV | not soluble
8 | MAGAGGQRNSEHVLCDACYFEEFDLVDAPDTIQVRVCSRCGAVHKGNRWVDIGAEDYTDIAVEQVSEALGIHVDAQSVAWQVAPEQLDKNNIRMHAEFSGVIRGTPVTEEVTVPVRISRQTCKRCGKIAGGSFASIVQVRADGRDPTDDERERAEEIAQEYVAAREETGDRNAFITETKSVDDGLDMKISTNQMGLGIAKRITAQLGGSYSDSRRLISEDEDGQELYRMTYAVRLPRYRQGEVIDPEDGDGPVLVRSVQGNLKGVRLATGEDYEASFEAGETPDARRLGFREDGQQTTLVAIEDERAVQVLDPETFESKTVPRPDYLDIDADEVPVLKSHAGLHILPAADADTDELEHHHHHH | not soluble
9 | MAKGASISGFPEWLPSERVVEQRVIDTLRNVFELNGFIGIETRAVEQGSSLLKKGETSKEIYLLSRLQEVGHESDTPIEDRLGLHFDLTVPLSRYVVEHSGDLAFPFKRWQIQKVWRGERPQEGRFREFVQADIDVIGNGDLPDHYEVELPLVMVSALERLREFGLPKATVHANNRKLSEGFYRGLGLTDIEGVLREIDKLDKIGADEVAKLLVEGCGADEAQARACLELAELTAADGKELSDKFDALCAKHDIASDSDAYVLARQGLDTLAMIVDEAARIRPGSVIADLKIARGLDYYTGSVYETFLDGAAALGSICSGGRYDNLASQGNKKYPGVGLSIGLSRLVSYMLHTAGAHANRVSPASVLVAVWNEADRSASNLIANQLRSRGIAADVAPTAAKLGKQIKYADKLGIPYVWFPADASEEGAQDEVKNIITGDQRPADAQSWEPDTVYAQQTVTVEA | soluble
10 | MAVLKIISWNVNGLRAVHRKGFLKWFMEEKPDILCLQEIKAAPEQLPRKLRHVEGYRSFFTPAERKGYSGVAMYTKVPPSSLREGFGVERFDTEGRIQIADFDDFLLYNIYFPNGKMSEERLKYKLEFYDAFLEDVNRERDSGRNVIICGNFNTAHREIDLARPKENSNVSGFLPVERAWIDKFIENGYVDTFRMFNSDPGQYTWWSYRTRARERNVGWRLDYFFVNEEFKGKVKRSWILSDVMGSDHCPIGLEIELLEHHHHHH | soluble
11 | MASVTEQFNDIISLYSTKLEHTSLRQDSPEYQGLLLSTIKKLLNLKTAIFDRLALFSTNETIDDVSTASIKFLAVDYYLGLLISRRQSNDSDVAQRQSMKLIYLKKSVESFINFLTLLQDYKLLDPLVGEKLGNFKDRYNPQLSELYAQPKNNKDLSGAQLKRKEKIELFQRNKEISTKLHCLELELKNNDEDHDHDELLRELYLMRLHHFSLDTINNIEQNLFECEMLSNFLK | soluble
12 | MGSDKIHHHHHHMNLRVLGKILLDEMRNGDVAIVEYSSSSPIHRLVWGEIILKYVDRYEFVIDDFFGIGDVMFRTYLRRISSPDEYTKIMEKTKNIKAIKIGPGKISYASKVEELPLTYNLSEFIKLYYPIIRDILAKSSKRVFFITLGLSQYLYLGEAKALETILLSRSVLPIEDWTSIYFLNTDVAPEKAVAALEEISPIVIQVRNNEILVKKI | not soluble
13 | MSLIIQVSPAGSMDLLSQLEVERLKKTASSDLYQLYRNCSLAVLNSGSHTDNSKELLDKYKNFDITVMRRERGIKLELANPPEHAFVDGQIIKGIQEHLFSVLRDIVYVNMHLADSQRLNLTNATHITNLVFGILRNAGALIPGATPNLVVCWGGHSINEVEYQYTREVGHELGLRELNICTGCGPGAMEGPMKGAAVGHAKQRYSEYRYLGLTEPSIIAAEPPNPIVNELVIMPDIEKRLEAFVRMAHGIIIFPGGPGTAEELLYILGIMMHPENADQPMPIVLTGPKQSEAYFRSLDKFITDTLGEAARKHYSIAIDNPAEAARIMSNAMPLVRQHRKDKEDAYSFNWSLKIEPEFQLPFEPNHESMANLDLHLNQRPEVLAANLRRAFSGVVAGNVKAEGIREIERHGPFEMHGDPVLMKKMDQLLNDFVAQNRMKLPGGSAYEPCYKIVTEGHHHHHH | soluble
14 | MTTSGHACPVPAVNGHMTHYPATPYPLLFPPVIGGLSLPPLHGLHGHPPPSGCSTPSPATIETQSTSSEELVPSPPSPLPPPRVYKPCFVCQDKSSGYHYGVSACEGCKGFFRRSIQKNMIYTCHRDKNCVINKVTRNRCQYCRLQKCFEVGMSKESVRNDRNKKKKETSKQECTESYEMTAELDDLTEKIRKAHQETFPSLCQLGKYTTNSSADHRVRLDLGLWDKFSELATKCIIKIVEFAKRLPGFTGLTIADQITLLKAACLDILILRICTRYTPEQDTMTFSDGLTLNRTQMHNAGFGPLTDLVFTFANQLLPLEMDDTETGLLSAICLICGDRQDLEEPTKVDKLQEPLLEALKIYIRKRRPSKPHMFPKILMKITDLRSISAKGAERVITLKMEIPGSMPPLIQEMLENSEGHEPLTPSSSGNTAEHSPSISPSSVENSGVSQSPLVQ | soluble
15 | LFSCIISSIETTKYVGISGVNKSVIDYTPAADMELVTIGESLSLKHPPIDATGCPSPATITRAAVDLLKIPIMTIDAGSYVKPKIPYISVDQRPTGDIQKGLGMDNSKELLNLGKIIGNNNIYDSLVIGESVPGGTTTALGVLLGLGYDARDKISSGSVENPKDLKLSVVENGLKTCKSEDVFDVLNAVGDKMMPVVAGMTISAVSKGK | not soluble
16 | MRKWQCVVCGFIYDEALGLPEEGIPAGTRWEDIPADWVCPDCGVGKIDFEMIEIA | soluble
17 | VTLSLTKDNFDDVVNNADIILVEFYAPWCGHCKKLAPEYEKAAKELSKRSPPIPLAKVDATEQTDLAKRFDVSGYPTLKIFRKGRPFDYNGPREKYGIVDYMIEQSG | soluble
18 | SNKLMELANLQPKRPKTIKQRHVRKKRKIKDMLNTPLCPSHSSLHPVLLPSDVFDQPQPVGNKRIEFHISTDMPAAFKKDLEKEQNCEEKNHDLPATEVDASNIGFGKIFPKPNLDITEEIKEDSDEMPSECISRRELEKGRISREEMETLSVFRSYEPGEPNCRIYVKNLAKHVQEKDLKYIFGRYVDFSSETQRIMFDIRLMKEGRMKGQAFIGLPNEKAAAKALKEANGYVLFGKPMVVQFARSARPKQDPKEGKRKC | soluble
19 | MGSDKIHHHHHHMKGIEIVNYGGPEVAKVRTFSSPVRRSGEVMIQVVASSINPVDIKYMTPETIQKIPSFPAILGWDIAGIIIEADKNSNFSAGERVVAFHPQGSWQQLVTASENQVVKLPDNIDFISGGSIPLAASTALQALRRLRLEPGERLLVTGAAGSVGYYALQFALKMGVKASGLVRNKNQKMSINLLDTEIYTNDDPIPEFDAVFDTAGVLNRIDVIHKGGRLVTVSDEQIDPQVLKHTSFAEHNYVRVNKEDLEEIVHLVSEAKIETRVAKIYSFNNVQEALAQAIKSGNNGKVMLIF | not soluble
20 | SGHPPLEFSDCYLDSPDFRERLKCYEQELERTNKFIKDVIKDGNALISAMRNYSSAVQKFSQTLQSFQFDFIGDTLTDDEINIAESFKEFAELLNEVENERMMMVHNASDLLIKPLENFRKEQIGFTKERKKKFEKDGERFYSLLDRHLHLSSKKKESQLQEADLQVDKERHNFFESSLDYVYQIQEVQESKKFNIVEPVLAFLHSLFISNSLTVELTQDFLPYKQQLQLSLQNTRNHFSSTREEMEELKKRMKEAPQTCKLPGQPTIEGYLYTQEKCVWGHRGIHWVSISQELLPLVGCEFWAPLLFIDP | soluble
21 | MSLDFDADTPVVGMVHLSPLPGAPGYDDGNRPAIRDAALRDASRLEAGGVDALLVENFGDAPFYADDVPKHVVASMAALVRDITREAEVPVGVNVLRNDAEAAVSIAAAADADFVRVNVHTGARLTDQGVVGGQAAETVRLRDRLDAAEVSMLADIDVKHSAALAERPLSEGVAELLERGHADGVIASGAGTGHATDHDHLQAVVDARDRLDADAPVFVGSGVTQETVGATLDLADGAIVGTALKQNGETTAPVDGDRVRALVDAAR | not soluble
